{"source": "paper PMC9016894", "about": "“MdMYB10 affects nitrogen uptake and reallocation by regulating the nitrate transporter MdNRT2.4-1 in red-fleshed apple”", "binders": {"B1": {"name": "MdNRT2.4-1(MBS-1) (dsDNA)", "DNA 1": "TTATAGAGGGTTTTGAGTTGACCGTGTGAAGGGTTGTGAAGAGGC", "DNA 2": "GCCTCTTCACAACCCTTCACACGGTCAACTCAAAACCCTCTATAA"}, "B2": {"name": "MdNRT2.4-1(MBS-1m) (dsDNA)", "DNA 1": "B1 DNA 1 with C22T, C23T", "DNA 2": "B1 DNA 2 with G23A, G24A"}, "B3": {"name": "MdNIA2-1(MRE) (dsDNA)", "DNA 1": "AAGATTTCAGTTTAACAATTAGGTTGATTAGGAACCGGAACCAAA", "DNA 2": "TTTGGTTCCGGTTCCTAATCAACCTAATTGTTAAACTGAAATCTT"}}, "conditions_in_all_cases": "protein: recombinant; tags: His (pET32a); blunt", "key": {"[1]": {"molecular_target": "T1, MdMYB10-HIS (also printed MdMYB1-HIS) (Malus domestica? (apple), UniProt E2RZU2 1-243)", "T1 sequence": "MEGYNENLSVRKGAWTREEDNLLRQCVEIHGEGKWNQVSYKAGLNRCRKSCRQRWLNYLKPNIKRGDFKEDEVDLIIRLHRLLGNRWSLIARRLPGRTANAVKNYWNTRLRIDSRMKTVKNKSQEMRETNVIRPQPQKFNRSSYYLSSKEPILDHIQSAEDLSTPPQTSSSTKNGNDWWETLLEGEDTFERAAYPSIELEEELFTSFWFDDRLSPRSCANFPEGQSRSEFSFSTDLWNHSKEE", "assay": "EMSA; not stated (EMSA as described by Xie et al. [40])"}, "[2]": {"molecular_target": "T1, MdMYB10-HIS (also printed MdMYB1-HIS)", "assay": "competition; unlabeled MBS-1m against labeled MBS-1; no competition; not stated (EMSA as described by Xie et al. [40])"}, "[3]": {"molecular_target": "T1, MdMYB10-HIS (also printed MdMYB1-HIS)", "assay": "EMSA; shift seen; authors judge it non-specific; not stated (EMSA as described by Xie et al. [40])"}}, "note": "Changes are numbered by the printed parent chain."}
{"binder": "B1", "values": [{"measurement": "binding result", "setting": "[1]", "value": "binds"}]}
{"binder": "B2", "values": [{"measurement": "binding result", "setting": "[2]", "value": "no binding"}]}
{"binder": "B3", "values": [{"measurement": "binding result", "setting": "[3]", "value": "binds"}]}
